According to patent US20050261475A1:

Target: recombinant microtubule-associated protein Tau (Homo sapiens (Human)) (UniProt P10636)

in vitro phosphorylation, stoichiometry; MALDI-TOF MS of tryptic peptides (phosphates per Tau molecule): 0.5
Substance: purified active CDK5/p25 complex (enzyme)
